The text below walks through data of PMC3824080.

Usually stoichiometry N stands for the number of molecules, sites or subunits per partner or assembly.

The target of the experiment is T1, Human cytosolic aspartyl-tRNA synthetase (human), P14868.
T1 chain: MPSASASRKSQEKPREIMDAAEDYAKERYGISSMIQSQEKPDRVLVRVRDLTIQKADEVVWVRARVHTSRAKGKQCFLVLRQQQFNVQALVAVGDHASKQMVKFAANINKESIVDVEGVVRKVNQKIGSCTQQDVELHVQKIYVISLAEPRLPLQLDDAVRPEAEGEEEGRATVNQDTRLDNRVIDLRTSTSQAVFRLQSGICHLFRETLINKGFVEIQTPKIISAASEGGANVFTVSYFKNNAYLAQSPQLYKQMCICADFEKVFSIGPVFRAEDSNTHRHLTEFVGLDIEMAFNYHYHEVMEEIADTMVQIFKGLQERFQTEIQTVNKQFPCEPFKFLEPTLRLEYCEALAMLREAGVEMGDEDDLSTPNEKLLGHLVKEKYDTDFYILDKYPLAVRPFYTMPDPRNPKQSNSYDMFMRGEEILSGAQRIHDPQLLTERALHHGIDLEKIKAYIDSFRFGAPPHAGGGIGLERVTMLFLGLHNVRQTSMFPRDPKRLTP
The experiment in a line: crystal structure. Particulars: remark: other sources report otherwise.

B1: Human cytosolic aspartyl-tRNA synthetase, P14868 1-501 (enzyme)
chain: MPSASASRKSQEKPREIMDAAEDYAKERYGISSMIQSQEKPDRVLVRVRDLTIQKADEVVWVRARVHTSRAKGKQCFLVLRQQQFNVQALVAVGDHASKQMVKFAANINKESIVDVEGVVRKVNQKIGSCTQQDVELHVQKIYVISLAEPRLPLQLDDAVRPEAEGEEEGRATVNQDTRLDNRVIDLRTSTSQAVFRLQSGICHLFRETLINKGFVEIQTPKIISAASEGGANVFTVSYFKNNAYLAQSPQLYKQMCICADFEKVFSIGPVFRAEDSNTHRHLTEFVGLDIEMAFNYHYHEVMEEIADTMVQIFKGLQERFQTEIQTVNKQFPCEPFKFLEPTLRLEYCEALAMLREAGVEMGDEDDLSTPNEKLLGHLVKEKYDTDFYILDKYPLAVRPFYTMPDPRNPKQSNSYDMFMRGEEILSGAQRIHDPQLLTERALHHGIDLEKIKAYIDSFRFGAPPHAGGGIGLERVTMLFLGLHNVRQTSMFPRDPKRLTP
B1 had a stoichiometry N of 2.
